Experimental data published in publication PMC12517307.

Molecular target: p53 (UniProt P04637)
Sequence (P04637 whole entry): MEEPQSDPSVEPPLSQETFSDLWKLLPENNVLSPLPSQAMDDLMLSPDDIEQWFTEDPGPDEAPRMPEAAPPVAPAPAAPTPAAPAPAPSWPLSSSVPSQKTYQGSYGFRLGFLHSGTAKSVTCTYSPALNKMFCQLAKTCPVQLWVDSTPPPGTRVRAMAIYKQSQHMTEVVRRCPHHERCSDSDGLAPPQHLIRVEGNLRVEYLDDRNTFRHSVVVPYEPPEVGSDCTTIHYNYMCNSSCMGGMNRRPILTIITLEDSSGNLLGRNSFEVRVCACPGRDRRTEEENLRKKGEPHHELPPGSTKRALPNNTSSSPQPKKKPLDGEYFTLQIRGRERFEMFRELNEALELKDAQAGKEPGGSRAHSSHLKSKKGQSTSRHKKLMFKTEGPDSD

In the case of p300 acetyl transferase, Q09472 1-2414, the p53 acetylation (IP with anti-p53, blot with anti-acetyl-lysine) in 3T3-L1 adipocytes overexpressing p53 and p300: reduction by NDN against control adipocytes; reversed by further addition of p300 was 51%.
